Experimental data as given in paper PMC7593965.

Target: isolated C-terminal domain of FusB (Pectobacterium carotovorum LMG2410)
Assay: ITC; MicroCal iTC200, 25°C, 10 mM Tris-HCl (pH 7.5)-150 mM NaCl; titrant (FusANTR-GFP, GFP or FerSp) injected in 2 μl steps into FusBCTD, FusBCTD R176K/R177K or TonBCTD in the cell

Substance | Kd [µM]
N-terminal region of FusA (residues 21 to 66) fused to green fluorescent protein (from UniProt C6DG80 21-66) (domain or fragment) | 57
spinach ferredoxin (from UniProt P00221 51-147) (natural protein) | 8.7
